Data taken from patent US20240218060A1.

What follows are substances tested against human neonatal Fc-receptor (FcRn) (human) (UniProt P55899) (assay: FcRn affinity chromatography).
human neonatal Fc-receptor (FcRn) (human), sequence (P55899 24-297 limits assumed, chain 1 of 2): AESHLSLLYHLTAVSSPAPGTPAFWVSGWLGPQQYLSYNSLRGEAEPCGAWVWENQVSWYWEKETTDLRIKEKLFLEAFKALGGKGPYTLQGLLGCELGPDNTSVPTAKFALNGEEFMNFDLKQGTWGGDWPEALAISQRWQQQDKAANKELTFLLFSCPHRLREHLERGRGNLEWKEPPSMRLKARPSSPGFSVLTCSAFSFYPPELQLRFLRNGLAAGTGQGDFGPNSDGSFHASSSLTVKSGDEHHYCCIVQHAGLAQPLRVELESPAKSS
human neonatal Fc-receptor (FcRn) (human), sequence (P61769 21-119 limits assumed, chain 2 of 2, further chain): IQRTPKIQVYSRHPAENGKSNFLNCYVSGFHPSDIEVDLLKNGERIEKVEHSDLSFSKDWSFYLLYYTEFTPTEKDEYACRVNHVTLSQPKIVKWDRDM

Q: With “IgG1 Fc-region molecule with L234A/L235A/P329G and Y436A (symmetric)” as the substance, how does the FcRn-affinity column retention time read?
A: 41.3 min

What follows are substances tested against human neonatal Fc-receptor (FcRn) (human) (UniProt P55899) (assay: FcRn affinity chromatography, anti-HER2 antibody).

Q: How did the retention time on FcRn affinity column turn out when anti-HER2 antibody, symmetric E258H was run?
A: 45.6 min

Q: For anti-HER2 antibody, symmetric E430H, which retention time on FcRn affinity column is on record?
A: 46.4 min

Q: anti-HER2 antibody, symmetric K288E was tested. Which retention time on FcRn affinity column did it give?
A: 45.2 min

Q: anti-HER2 antibody, symmetric K290H was tested. Which retention time on FcRn affinity column did it give?
A: 46.2 min

Q: For anti-HER2 antibody, symmetric K317H, which retention time on FcRn affinity column is on record?
A: 46.3 min

Q: With anti-HER2 antibody, symmetric L309H as the substance, how does the retention time on FcRn affinity column read?
A: 45.5 min

Q: With anti-HER2 antibody, symmetric N434H as the substance, how does the retention time on FcRn affinity column read?
A: 52 min

Q: How did the retention time on FcRn affinity column turn out when anti-HER2 antibody, symmetric Q311H was run?
A: 46.3 min

Q: How did the retention time on FcRn affinity column turn out when anti-HER2 antibody, symmetric R255D was run?
A: 41.4 min

Q: With anti-HER2 antibody, symmetric T256H as the substance, how does the retention time on FcRn affinity column read?
A: 46 min

Q: anti-HER2 antibody, wild-type was tested. Which retention time on FcRn affinity column did it give?
A: 46.3 min

Each substance was assayed against human neonatal Fc-receptor (FcRn) (human) (UniProt P55899) (assay: FcRn affinity chromatography, bispecific KiH antibody).

Q: “bispecific antibody (knobs-into-holes), one chain with H310A” was tested. Which retention time on FcRn affinity column did it give?
A: 48.4 min

Q: How did the retention time on FcRn affinity column turn out when “bispecific antibody (knobs-into-holes), one chain with H310A/H433A/Y436A” was run?
A: 46.7 min

Q: How did the retention time on FcRn affinity column turn out when “bispecific antibody (knobs-into-holes), one chain with H435A” was run?
A: 48.8 min

Q: For “bispecific antibody (knobs-into-holes), one chain with I253A”, which retention time on FcRn affinity column is on record?
A: 48.8 min

Q: For “bispecific antibody (knobs-into-holes), one chain with L251D/L314D/L432D”, which retention time on FcRn affinity column is on record?
A: 46.3 min

Q: With “bispecific antibody (knobs-into-holes), one chain with M252Y/S254T/T256E” as the substance, how does the retention time on FcRn affinity column read?
A: 56.2 min

The substances below were run against human neonatal Fc-receptor (FcRn) (human) (UniProt P55899) (assay: FcRn affinity chromatography of a knobs-into-holes bispecific antibody).

Q: Which RT (Min) on the FcRn affinity column does the source give for “bispecific antibody (knobs-into-holes), first chain I253A/H310A/H435A, second chain H310A” here?
A: 0 min

Q: For “bispecific antibody (knobs-into-holes), first chain I253A/H310A/H435A, second chain H435A”, which RT (Min) on the FcRn affinity column is on record?
A: 0 min

Q: For “bispecific antibody (knobs-into-holes), first chain I253A/H310A/H435A, second chain I253A/H310A/H435A”, which RT (Min) on the FcRn affinity column is on record?
A: 0 min

Q: For “bispecific antibody (knobs-into-holes), one chain with H310A”, which RT (Min) on the FcRn affinity column is on record?
A: 48.4 min

Q: Which RT (Min) on the FcRn affinity column does the source give for “bispecific antibody (knobs-into-holes), one chain with H435A” here?
A: 48.8 min

Q: “bispecific antibody (knobs-into-holes), one chain with I253A” was tested. Which RT (Min) on the FcRn affinity column did it give?
A: 48.8 min
